Reference: publication PMC8893600 (Kidney international, 2021)

Target: p65 protein used for surface plasmon resonance (UniProt Q04206 1-551)
Test: SPR

p65 protein used for surface plasmon resonance, sequence (Q04206 whole entry): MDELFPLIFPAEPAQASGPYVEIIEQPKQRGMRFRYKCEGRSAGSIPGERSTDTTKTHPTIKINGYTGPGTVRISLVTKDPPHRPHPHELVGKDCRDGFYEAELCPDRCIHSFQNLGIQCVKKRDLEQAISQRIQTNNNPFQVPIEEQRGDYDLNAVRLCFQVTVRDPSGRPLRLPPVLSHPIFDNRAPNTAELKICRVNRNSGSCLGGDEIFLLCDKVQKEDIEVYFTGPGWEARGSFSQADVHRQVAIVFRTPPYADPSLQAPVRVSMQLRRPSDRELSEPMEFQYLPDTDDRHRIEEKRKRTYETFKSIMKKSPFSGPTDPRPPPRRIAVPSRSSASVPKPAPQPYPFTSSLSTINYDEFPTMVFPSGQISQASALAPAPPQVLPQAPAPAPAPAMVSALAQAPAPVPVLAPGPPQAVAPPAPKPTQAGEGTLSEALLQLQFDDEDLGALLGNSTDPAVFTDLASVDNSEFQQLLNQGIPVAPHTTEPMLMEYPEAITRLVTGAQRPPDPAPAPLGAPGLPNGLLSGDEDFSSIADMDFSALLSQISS

Kd: 13 nM
B1: ANXA1 protein used for surface plasmon resonance (natural protein, UniProt P04083 1-346, looked up)
chain: MAMVSEFLKQAWFIENEEQEYVQTVKSSKGGPGSAVSPYPTFNPSSDVAALHKAIMVKGVDEATIIDILTKRNNAQRQQIKAAYLQETGKPLDETLKKALTGHLEEVVLALLKTPAQFDADELRAAMKGLGTDEDTLIEILASRTNKEIRDINRVYREELKRDLAKDITSDTSGDFRNALLSLAKGDRSEDFGVNEDLADSDARALYEAGERRKGTDVNVFNTILTTRSYPQLRRVFQKYTKYSKHDMNKVLDLELKGDIEKCLTAIVKCATSKPAFFAEKLHQAMKGVGTRHKALIRIMVSRSEIDMNDIKAFYQKMYGISLCQAILDETKGDYEKILVALCGGN
